Patent US20260116920A1 (PEPTIDREAM, published 2026)
Starred links: 1 amine or outer side, 2 acyl side, 3 side chain; linkers in the order of their positions; H or OH if unused. Positions of bridges follow the written chain, without caps; N, C: chain ends. Non-standard residues stand in square brackets, D forms with d. Primed or numbered codes have the meaning given here. No end group written: not given here. *: point of attachment. MePEG4c″ = K(MePEG4c) = (S)-20-amino-14-oxo-2,5,8,11-tetraoxa-15-azahenicosane-21-oic acid (Lys side chain acylated with methoxy-PEG4 acid), COCCOCCOCCOCCC(=O)*; E(PEG8Me) = (S)-30-amino-27-oxo-2,5,8,11,14,17,20,23-octaoxa-26-azahentriacontane-31-oic acid, COCCOCCOCCOCCOCCOCCOCCOCCNC(=O)CC[C@H](N[*:1])C(=O)[*:2]; Phe(4-OMe)(3) = (S)-2-amino-3-(4-methoxyphenyl)propanoic acid (source code F4OMe), COc1ccc(C[C@H](N[*:1])C(=O)[*:2])cc1; F4aao = (S)-2-amino-3-(4-(carboxymethoxy)phenyl)propanoic acid, O=C([C@H](Cc1ccc(OCC(=O)[*:3])cc1)N[*:1])[*:2]; Phe(4-OMe)″ = (S)-2-amino-3-(4-methoxyphenyl)propanoic acid (F4OMe), COc1ccc(C[C@H](N[*:1])C(=O)[*:2])cc1; Phe(4-OMe) = F4OMe = (S)-2-amino-3-(4-methoxyphenyl)propanoic acid, COc1ccc(C[C@H](N[*:1])C(=O)[*:2])cc1; Trp(1-CH2CO) = O=C([C@H](Cc1cn(CC(=O)[*:3])c2ccccc12)N[*:1])[*:2]; Phe(3-COOH) = N[C@@H](Cc1cccc(C(=O)O)c1)C(=O)O; NMePhe(3-Cl) = CN[C@@H](Cc1cccc(Cl)c1)C(=O)O; NMePhe(4-F) = CN[C@@H](Cc1ccc(F)cc1)C(=O)O; 3Pal(6-NH2) = Nc1ccc(C[C@H](N)C(=O)O)cn1; NMeW = CN[C@@H](Cc1c[nH]c2ccccc12)C(=O)O; NMe3Pal = CN[C@@H](Cc1cccnc1)C(=O)O; NMe4Pal = CN[C@@H](Cc1ccncc1)C(=O)O; NMeY = CN[C@@H](Cc1ccc(O)cc1)C(=O)O; NMeR = CN[C@@H](CCCNC(=N)N)C(=O)O; NMeF = CN[C@@H](Cc1ccccc1)C(=O)O; 3Pal = N[C@@H](Cc1cccnc1)C(=O)O; 4Pal = N[C@@H](Cc1ccncc1)C(=O)O; NMeA = CN[C@@H](C)C(=O)O

Molecular target: T1, human transferrin receptor (hTfR) (human, UniProt P02786 89-760)
T1 construct: used as 0.5 uM hTfR dimer solution, immobilised on an NTA sensor chip (Ni capture plus EDC/NHS coupling); also called human TfR; TfR1
Assay: SPR; B = KD 1-100 nM
Experimental: NTA sensor chip (Global Life Sciences Technologies Japan K.K.) was inserted into BiacoreT200 (Global Life Sciences Technologies Japan K.K.), then the priming operation was performed three times by using running buffer containing: 10 mM HEPES pH 8.0 (Nacalai Tesque, Inc.), 150 mM NaCl (Nacalai Tesque, Inc.), 0.05% Tween 20 (Nacalai Tesque, Inc.), 0.1% BSA (SIGMA-ALDRICH) and 1.0% DMSO (FUJIFILM Wako Pure Chemical Corporation), and equilibrated at a flow rate of 30 μL/min. 350 mM EDTA solution was reacted at a flow rate of 10 μL/min for 60 seconds, 0.5 mM […] solution (Kishida Chemical Co., Ltd.) was reacted at a flow rate of 10 μL/min for 60 seconds, and then the NTA sensor chip was washed with 3 mM EDTA solution (Nacalai Tesque, Inc.) at a flow rate of 10 μL/min for 60 seconds. After mixing 50 μL each of 60 mM EDC solution (Global Life Science Technologies Japan K.K.) and 650 mM NHS solution (Global Life Science Technologies Japan K.K.), the reaction was carried out at a flow rate of 10 μL/min for 420 seconds. 150 μL of 0.5 μM hTfR dimer solution was prepared by dilution with running buffer and reacted at a flow rate of 10 μL/min for 300 seconds to immobilize hTfR on the NTA sensor chip. For the human transferrin receptor (hTfR), recombinant hTfR described in Example 2 of WO2018/124121 was used. After immobilization, capping was performed by reacting with 1.0 M ethanolamine solution (Global Life Sciences Technologies Japan K.K.) at a flow rate of 10 μL/min for 420 seconds. Peptide lysate prepared in DMSO solution to 10 mM was diluted with running buffer to be a final concentration of 10 μM peptide lysate, then peptide solutions of 100 nM, 50 nM, 25 nM, 10 nM, and 5 nM were prepared. Using the above samples, the kinetics of the peptide against hTfR was obtained by SPR measurement.
The kinetic evaluation model was single-cycle kinetics, and curve fitting was performed using Biacore T200 Evaluation Software Version 3.0 (Global Life Science Technologies Japan K.K.). The binding of the peptide to hTfR was evaluated by performing curve fitting on the obtained sensorgram by least squares method and obtaining the KD value.

T1 sequence (P02786 89-760 limits assumed): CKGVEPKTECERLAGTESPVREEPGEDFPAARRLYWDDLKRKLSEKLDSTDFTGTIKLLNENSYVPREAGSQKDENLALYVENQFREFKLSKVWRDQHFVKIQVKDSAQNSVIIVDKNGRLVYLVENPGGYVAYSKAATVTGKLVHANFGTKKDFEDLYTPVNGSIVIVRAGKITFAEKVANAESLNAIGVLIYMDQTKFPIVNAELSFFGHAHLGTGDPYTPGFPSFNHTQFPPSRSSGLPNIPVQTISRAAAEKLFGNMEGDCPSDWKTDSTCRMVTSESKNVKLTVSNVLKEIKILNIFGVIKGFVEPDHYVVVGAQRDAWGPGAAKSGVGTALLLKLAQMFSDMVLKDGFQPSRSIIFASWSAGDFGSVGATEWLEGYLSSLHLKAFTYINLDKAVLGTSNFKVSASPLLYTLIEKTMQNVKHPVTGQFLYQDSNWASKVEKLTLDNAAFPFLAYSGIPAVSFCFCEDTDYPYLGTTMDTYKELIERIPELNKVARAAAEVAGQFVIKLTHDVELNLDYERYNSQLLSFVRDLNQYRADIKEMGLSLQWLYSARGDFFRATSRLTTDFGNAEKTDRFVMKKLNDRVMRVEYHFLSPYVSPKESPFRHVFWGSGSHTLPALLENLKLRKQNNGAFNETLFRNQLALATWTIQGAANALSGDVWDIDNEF

Row | Binder | KD [nM]
1 | {CH2CO}-AV[NMePhe(4-F)]V[NMeW]NYYIIK(MePEG4c″)[dR]FYC-NH2 (thioether N-15; not fully specified (residue 14)) [894_0269] | 1 to 100
2 | {CH2CO}-AV[NMePhe(3-Cl)]VWNY[4Pal]IIRR[4Pal][NMeY]C-NH2 (thioether N-15; also: linker PEG4c) [894_0312] | 1 to 100
3 | {CH2CO}-AV[NMe4Pal]VWNY[Phe(4-OMe)″]IIRRF[NMeY]C-NH2 (thioether N-15; also: linker PEG4c) [894_0314] | 1 to 100
4 | {CH2CO}-AV[NMeF]VWNYYII[NMeR]RFYC-NH2 (thioether N-15; not fully specified (residue 14); also: linker PEG4c) [894_0284, listing 1 of 2 here] | 1 to 100
5 | {CH2CO}-AV[NMeF]V[Trp(1-CH2CO)]NY[F4aao]IIRRYYC-NH2 (thioether N-15; not fully specified (residue 14); also: linker PEG4c) [894_0297] | 1 to 100
6 | {CH2CO}-AV[NMe3Pal]VWNY[Phe(4-OMe)″]IIRR[4Pal][NMeY]C-NH2 (thioether N-15; also: linker PEG4c) [894_0316] | 1 to 100
7 | Ac-AV[NMe3Pal]VWN[3Pal(6-NH2)][Phe(4-OMe)(3)]IIRRF[NMeY]C (thioether (positions not given here); not fully specified (C-terminus, bridges)) [894_0322] | 1 to 100
8 | {CH2CO}-AV[NMePhe(3-Cl)]V[Trp(1-CH2CO)]NY[3Pal]IIRR[4Pal][NMeY]C (thioether N-15; not fully specified (C-terminus)) [894_0306] | 1 to 100
9 | {CH2CO}-AV[NMeF]VWNY[F4aao]IIRRYYC-NH2 (thioether N-15; not fully specified (residue 14); also: linker PEG4c) [894_0296] | 1 to 100
10 | {CH2CO}-AV[NMePhe(3-Cl)]VWN[3Pal(6-NH2)][Phe(4-OMe)″]IIRR[4Pal][NMeY]C-NH2 (thioether N-15; also: linker PEG4c) [894_0311] | 1 to 100
11 | {CH2CO}-AV[NMePhe(3-Cl)]VWNY[4Pal]IIRRF[NMeY]C-NH2 (thioether N-15; also: linker PEG4c) [894_0319] | 1 to 100
12 | {CH2CO}-AV[NMe3Pal]VWNY[Phe(4-OMe)″]IIRRF[NMeY]C-NH2 (thioether N-15; also: linker PEG4c) [894_0313] | 1 to 100
13 | {CH2CO}-AV[NMeF]VWNYYII[NMeR]RFYC-NH2 (thioether N-15; not fully specified (residue 14); also: linker PEG4c) [894_0284, listing 2 of 2 here] | 1 to 100
14 | {CH2CO}-AV[NMePhe(3-Cl)]V[Trp(1-CH2CO)]N[3Pal(6-NH2)][3Pal]IIRR[4Pal][NMeY]C (thioether N-15; not fully specified (C-terminus)) [894_0307] | 1 to 100
15 | {CH2CO}-AV[NMePhe(4-F)]V[NMeW]NYYII[NMeR]K(MePEG4c″)FYC-NH2 (thioether N-15; not fully specified (residue 14)) [894_0271] | 1 to 100
16 | {CH2CO}-AV[NMePhe(3-Cl)]VWN[3Pal(6-NH2)][3Pal]IIRR[4Pal][NMeY]C-NH2 (thioether N-15; also: linker PEG4c) [894_0310] | 1 to 100

Row | Binder | KD [nM]
17 | {CH2CO}-AV[NMePhe(4-F)]V[NMeW]NY[Phe(4-OMe)]IIK(MePEG4c″)[dR]FYC-NH2 (thioether N-15; not fully specified (residue 14)) [894_0270] | 1 to 100
18 | {CH2CO}-AV[NMePhe(3-Cl)]VWN[3Pal(6-NH2)][4Pal]IIRR[4Pal][NMeY]C-NH2 (thioether N-15; also: linker PEG4c) [894_0320] | 1 to 100
19 | {CH2CO}-AV[NMePhe(3-Cl)]V[Trp(1-CH2CO)]N[3Pal(6-NH2)][Phe(4-OMe)″]IIRR[4Pal][NMeY]C (thioether N-15; not fully specified (C-terminus)) [894_0308] | 1 to 100
20 | {CH2CO}-AV[NMePhe(3-Cl)]V[Trp(1-CH2CO)]NY[F4aao]II[E(PEG8Me)]R[Phe(3-COOH)][NMeY]C (thioether N-15; not fully specified (C-terminus)) [894_0301] | 1 to 100
21 | {CH2CO}-AV[NMePhe(4-F)]V[NMeW]NY[Phe(4-OMe)]II[NMeR]K(MePEG4c″)FYC-NH2 (thioether N-15; not fully specified (residue 14)) [894_0272] | 1 to 100
22 | {CH2CO}-AV[NMePhe(3-Cl)]VWNY[3Pal]IIRRF[NMeY]C (thioether N-15; not fully specified (C-terminus)) [894_0318] | 1 to 100
23 | {CH2CO}-AV[NMePhe(3-Cl)]V[Trp(1-CH2CO)]NY[F4aao]IIR[E(PEG8Me)]F[NMeY]C (thioether N-15; not fully specified (C-terminus)) [894_0299] | 1 to 100
24 | {CH2CO}-AV[NMeF]VWNYYIIR[dR]FYC-NH2 (thioether N-15; not fully specified (residue 14); also: linker PEG4c) [894_0282, listing 1 of 2 here] | 1 to 100
25 | {CH2CO}-AV[NMeF]VWNYYIIR[dR]FYC-NH2 (thioether N-15; not fully specified (residue 14); also: linker PEG4c) [894_0282, listing 2 of 2 here] | 1 to 100
26 | {CH2CO}-[NMeA]V[NMePhe(3-Cl)]V[NMeW]NY[Phe(4-OMe)]IIR[dA]FYC-NH2 (thioether N-15; not fully specified (residue 14); also: linker PEG4c) [894_0287] | 1 to 100
27 | {CH2CO}-AV[NMePhe(3-Cl)]VWN[3Pal(6-NH2)][Phe(4-OMe)″]IIRRF[NMeY]C-NH2 (thioether N-15; also: linker PEG4c) [894_0315] | 1 to 100
28 | {CH2CO}-AV[NMePhe(3-Cl)]V[Trp(1-CH2CO)]NY[F4aao]IIQRF[NMeY]C (thioether N-15; not fully specified (C-terminus)) [894_0302] | 1 to 100
29 | {CH2CO}-AV[NMePhe(3-Cl)]VWNY[3Pal]IIRR[4Pal][NMeY]C (thioether N-15; not fully specified (C-terminus)) [894_0309] | 1 to 100
30 | {CH2CO}-AV[NMePhe(3-Cl)]V[Trp(1-CH2CO)]NY[F4aao]II[E(PEG8Me)]RF[NMeY]C (thioether N-15; not fully specified (C-terminus)) [894_0298] | 1 to 100
31 | {CH2CO}-AV[NMePhe(3-Cl)]V[Trp(1-CH2CO)]NY[F4aao]IIRQF[NMeY]C (thioether N-15; not fully specified (C-terminus)) [894_0303] | 1 to 100
